Source: patent US20100260668A1 (published 2010)

T1: PlGF (UniProt P49763-2 21-149, limits assumed)
T1 construct: bought antigen coated on the ELISA plate; also called Placental GF
T1 sequence (looked up): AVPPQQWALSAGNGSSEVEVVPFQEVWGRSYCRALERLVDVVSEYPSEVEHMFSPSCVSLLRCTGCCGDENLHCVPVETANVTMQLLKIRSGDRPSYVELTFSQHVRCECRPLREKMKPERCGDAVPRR

B1: DVD542 (bispecific antibody, human IgG1, kappa)
heavy: not shown
light: DIQMTQSPSSLSASVGDRVTITCSASQDISNYLNWYQQKPGKAPKVLIYFTSSLHSGVPSRFSGSGSGTDFTLTISSLQPEDFATYYCQQYSTVPWTFGQGTKVEIKRTVAAPAIQMTQSSSSFSVSLGDRVTITCKASEDIYNRFAWYQQKPGNAPRLLISGAASLEAGVPSRFSGSGSGQDYTLSITSLQTEDVATYYCQQYWSTPWTFGGGTKLEIKRTVAAPSVFIFPPSDEQLKSGTASVVCLLNNFYPREAKVQWKVDNALQSGNSQESVTEQDSKDSTYSLSSTLTLSKADYEKHKVYACEVTHQGLSSPVTKSFNRGEC
notes: HC linker short, LC linker short; also called DVD-Ig DVD542
B2: DVD544 (bispecific antibody, human IgG1, kappa)
heavy: not shown
light: DIQMTQSPSSLSASVGDRVTITCRASQDVSTAVAWYQQKPGKAPKLLIYSASFLYSGVPSRFSGSGSGTDFTLTISSLQPEDFATYYCQQSYTTPPTFGQGTKVEIKRTVAAPAIQMTQSSSSFSVSLGDRVTITCKASEDIYNRFAWYQQKPGNAPRLLISGAASLEAGVPSRFSGSGSGQDYTLSITSLQTEDVATYYCQQYWSTPWTFGGGTKLEIKRTVAAPSVFIFPPSDEQLKSGTASVVCLLNNFYPREAKVQWKVDNALQSGNSQESVTEQDSKDSTYSLSSTLTLSKADYEKHKVYACEVTHQGLSSPVTKSFNRGEC
notes: HC linker short, LC linker short; also called DVD-Ig DVD544
B3: DVD546 (bispecific antibody, human IgG1, kappa)
heavy: not shown
light: DIQMTQSPSSLSASVGDRVTITCRASQVIRRSLAWYQQKPGKAPKLLIYAASNLASGVPSRFSGSGSGTDFTLTISSLQPEDFATYYCQQSNTSPLTFGQGTKVEIKRTVAAPAIQMTQSSSSFSVSLGDRVTITCKASEDIYNRFAWYQQKPGNAPRLLISGAASLEAGVPSRFSGSGSGQDYTLSITSLQTEDVATYYCQQYWSTPWTFGGGTKLEIKRTVAAPSVFIFPPSDEQLKSGTASVVCLLNNFYPREAKVQWKVDNALQSGNSQESVTEQDSKDSTYSLSSTLTLSKADYEKHKVYACEVTHQGLSSPVTKSFNRGEC
notes: outer AB071 (VEGF), inner AB074 (PlGF); HC linker short, LC linker short; also called DVD-Ig DVD546
B4: DVD552 (bispecific antibody, human IgG1, kappa)
heavy: not shown
light: DIQMTQSPSSLSASVGDRVTITCRASQDVSTAVAWYQQKPGKAPKLLIYSASFLYSGVPSRFSGSGSGTDFTLTISSLQPEDFATYYCQQSYTTPPTFGQGTKVEIKRTVAAPSVFIFPPAIQMTQSSSSFSVSLGDRVTITCKASEDIYNRFAWYQQKPGNAPRLLISGAASLEAGVPSRFSGSGSGQDYTLSITSLQTEDVATYYCQQYWSTPWTFGGGTKLEIKRTVAAPSVFIFPPSDEQLKSGTASVVCLLNNFYPREAKVQWKVDNALQSGNSQESVTEQDSKDSTYSLSSTLTLSKADYEKHKVYACEVTHQGLSSPVTKSFNRGEC
notes: HC linker long, LC linker long; also called DVD-Ig DVD552
B5: DVD554 (bispecific antibody, human IgG1, kappa)
heavy: not shown
light: DIQMTQSPSSLSASVGDRVTITCRASQVIRRSLAWYQQKPGKAPKLLIYAASNLASGVPSRFSGSGSGTDFTLTISSLQPEDFATYYCQQSNTSPLTFGQGTKVEIKRTVAAPSVFIFPPAIQMTQSSSSFSVSLGDRVTITCKASEDIYNRFAWYQQKPGNAPRLLISGAASLEAGVPSRFSGSGSGQDYTLSITSLQTEDVATYYCQQYWSTPWTFGGGTKLEIKRTVAAPSVFIFPPSDEQLKSGTASVVCLLNNFYPREAKVQWKVDNALQSGNSQESVTEQDSKDSTYSLSSTLTLSKADYEKHKVYACEVTHQGLSSPVTKSFNRGEC
notes: outer AB071 (VEGF), inner AB074 (PlGF); HC linker long, LC linker long; also called DVD-Ig DVD554
B6: DVD558 (bispecific antibody, human IgG1, kappa)
heavy: not shown
light: B1 light
notes: HC linker long, LC linker short; also called DVD-Ig DVD558
B7: DVD560 (bispecific antibody, human IgG1, kappa)
heavy: not shown
light: B2 light
notes: HC linker long, LC linker short; also called DVD-Ig DVD560
B8: DVD562 (bispecific antibody, human IgG1, kappa)
heavy: not shown
light: B3 light
notes: outer AB071 (VEGF), inner AB074 (PlGF); HC linker long, LC linker short; also called DVD-Ig DVD562
B9: DVD566 (bispecific antibody, human IgG1, kappa)
heavy: not shown
light: DIQMTQSPSSLSASVGDRVTITCSASQDISNYLNWYQQKPGKAPKVLIYFTSSLHSGVPSRFSGSGSGTDFTLTISSLQPEDFATYYCQQYSTVPWTFGQGTKVEIKRTVAAPSVFIFPPAIQMTQSSSSFSVSLGDRVTITCKASEDIYNRFAWYQQKPGNAPRLLISGAASLEAGVPSRFSGSGSGQDYTLSITSLQTEDVATYYCQQYWSTPWTFGGGTKLEIKRTVAAPSVFIFPPSDEQLKSGTASVVCLLNNFYPREAKVQWKVDNALQSGNSQESVTEQDSKDSTYSLSSTLTLSKADYEKHKVYACEVTHQGLSSPVTKSFNRGEC
notes: HC linker short, LC linker long; also called DVD-Ig DVD566
B10: DVD573 (bispecific antibody, human IgG1, kappa)
heavy: not shown
light: DIVLTQSPDSLAVSLGERVTMNCKSSQSLLNSGMRKSFLAWYQQKPGQSPKLLIYWASTRESGVPDRFTGSGSGTDFTLTISSVQAEDVAVYYCKQSYHLFTFGSGTKLEIKRTVAAPDIQMTQSPSSLSASVGDRVTITCRASQDVSTAVAWYQQKPGKAPKLLIYSASFLYSGVPSRFSGSGSGTDFTLTISSLQPEDFATYYCQQSYTTPPTFGQGTKVEIKRTVAAPSVFIFPPSDEQLKSGTASVVCLLNNFYPREAKVQWKVDNALQSGNSQESVTEQDSKDSTYSLSSTLTLSKADYEKHKVYACEVTHQGLSSPVTKSFNRGEC
notes: HC linker short, LC linker short; also called DVD-Ig DVD573
B11: DVD575 (bispecific antibody, human IgG1, kappa)
heavy: not shown
light: DIVLTQSPDSLAVSLGERVTMNCKSSQSLLNSGMRKSFLAWYQQKPGQSPKLLIYWASTRESGVPDRFTGSGSGTDFTLTISSVQAEDVAVYYCKQSYHLFTFGSGTKLEIKRTVAAPDIQMTQSPSSLSASVGDRVTITCRASQVIRRSLAWYQQKPGKAPKLLIYAASNLASGVPSRFSGSGSGTDFTLTISSLQPEDFATYYCQQSNTSPLTFGQGTKVEIKRTVAAPSVFIFPPSDEQLKSGTASVVCLLNNFYPREAKVQWKVDNALQSGNSQESVTEQDSKDSTYSLSSTLTLSKADYEKHKVYACEVTHQGLSSPVTKSFNRGEC
notes: outer AB047 (PlGF), inner AB071 (VEGF); HC linker short, LC linker short; also called DVD-Ig DVD575

What follows are binders tested against T1, PlGF (assay: direct bind ELISA, C-terminal VD).
Protocol: Enzyme Linked Immunosorbent Assays to screen for antibodies that bind a desired target antigen were performed as follows. […] Plates were washed four times with PBS containing 0.02% Tween 20. Plates were blocked by the addition of 300 μL/well blocking solution (non-fat dry milk powder, various retail suppliers, diluted to 2% in PBS) for ½ hour at room temperature. Plates were washed four times after blocking with PBS containing 0.02% Tween 20.
Plates were washed 4 times with PBS containing 0.02% Tween 20.

**Q.** Which EC50 does the source give for B1 here?
**A.** 13 nM

**Q.** B2 was tested. Which EC50 did it give?
**A.** 13.8 nM

**Q.** How did the EC50 turn out when B3 was run?
**A.** 7.03 nM

**Q.** With B4 as the binder, how does the EC50 read?
**A.** 8.54 nM

**Q.** With B5 as the binder, how does the EC50 read?
**A.** 0.45 nM

**Q.** How did the EC50 turn out when B6 was run?
**A.** 3.37 nM

**Q.** How did the EC50 turn out when B7 was run?
**A.** 2.53 nM

**Q.** Which EC50 does the source give for B8 here?
**A.** 1.12 nM

**Q.** Which EC50 does the source give for B9 here?
**A.** 1.42 nM

The binders below were run against T1, PlGF (assay: direct bind ELISA, N-terminal VD).

**Q.** With B10 as the binder, how does the EC50 read?
**A.** 0.14 nM

**Q.** For B11, which EC50 is on record?
**A.** 0.14 nM

These binders were tested against T2, VEGF (UniProt P15692 27-191, limits assumed) (assay: direct bind ELISA, N-terminal VD).
T2 construct: bought antigen coated on the ELISA plate
T2 sequence (P15692 other isoform, or with tags, fused parts or gaps limits assumed): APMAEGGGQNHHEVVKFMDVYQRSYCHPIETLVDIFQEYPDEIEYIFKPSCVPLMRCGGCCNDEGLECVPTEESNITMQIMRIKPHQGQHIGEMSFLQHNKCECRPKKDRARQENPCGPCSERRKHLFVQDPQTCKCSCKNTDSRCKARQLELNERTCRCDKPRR

**Q.** B1 was tested. Which EC50 did it give?
**A.** 0.8 nM

**Q.** With B2 as the binder, how does the EC50 read?
**A.** 2.35 nM

**Q.** Which EC50 does the source give for B3 here?
**A.** 25.8 nM

**Q.** Which EC50 does the source give for B4 here?
**A.** 314 nM

**Q.** How did the EC50 turn out when B5 was run?
**A.** 15.2 nM

**Q.** With B6 as the binder, how does the EC50 read?
**A.** 1.96 nM

**Q.** With B7 as the binder, how does the EC50 read?
**A.** 3.12 nM

**Q.** With B8 as the binder, how does the EC50 read?
**A.** 17.7 nM

**Q.** For B9, which EC50 is on record?
**A.** 1.49 nM
